System: en-10C-R4 (engrailed homeodomain-ligase 10C-tetra-arginine) (artificial fusion)
Test: fluorescence anisotropy
Settings: 20 mM HEPES pH 7.5, 150 mM NaCl, 100 uM 2-mercaptoethanol, 120 uM ZnCl2, 100 ug/ml BSA, 24 C, 90 min

With “GUUCAGAGUUCUACAGUCACUAACGUUCGGGGAACCCAGGUGUUGGUCUUUGACGUAGAGUAUAAGA / TGGGTTCCCCGAACGT [RNA/DNA duplex (ligated product RNA + FAM-DNA splint #2)]” the Kd was 460 nM.

Source: publication PMC9638898
